Assay results published in the DeepSol protein solubility set.

Assay: soluble on expression in E. coli; label from the status in PepcDB or PDB records

| Sequence | soluble on expression in E. coli |
| --- | --- |
| MEKIWLDSYEKGVSAEIDITQYNSVSDVFRQSVEKFADQPAFQNMGKTLTYAETGKLATDFASYLQNVLKLPRGERVAIMLPNVLQYPVALFGILQAGLVAVNTNPLYTPRELEHQLKDSGATAIIVLENFANTLELVLPRTQIKHVIVASVGEMFGLLKGSLINFVIRKIKKMVPEYRIRETVSFQTALKEGAKHVFQPVALNREDTALLQYTGGTTGVAKGAVLSHGNICANMLQAKEWIKNQLREGKETVIAALPLYHIFALTVNLMIFANAGSKIILITNPRDMKGFIGELKKQRVNVFIGVNTLFNAMVNRPDFAEVDFSELRLTLGGGMATQKAVAEKWKKITGTPIVEAYGLTEASPGVCCNPLNIESYSGSIGLPVSSTEVELRDANGKEVPVGQPGELWVKGPQVMQGYWNRPEETAKAIDARGFLETGDIAVMDEKGWLKLVDRKKDLVVVSGFNVYPNEIEEVIAHHGKVMEVACIGVPDEKTGEALKVFVVKKDPSLTKEELIAFCRTELTAYKVPKNIEFRDELPKSNVGKILRRELRQSTGK | not soluble |
| MEKLIILGAQWGDEGKGKIVDLLSEHFDITVRYQGGSNAGHTVVVNSQKFILHLLPTGILHEHVKGVIAQGMVVDLEVLHKEVKNLEEKGIYVKERLFISDRAHLVMPYHKLLDSLFEKKKGIGTTLRGIGPAYMFKYGRKGIRISDLKDEKRFYTLLEDNLDFVKNICEKVFCEKFDLDINQIYEEQLRYFEEFKENVVDLLRFFNTQKGSVLFEGAQGTLLDVDMGTYPYVTSSNASALGLSNGTGMPPKYFSDAFFLGVAKAYTTRVGEGPFPTELKGEEGEKLRELGGEYGSTTGRPRRCGWLDLVALKYAVQVNGLDGFVITKLDVLDTFDEVKVCVAYELDGEVIDYFPASYSELIRVKPVYKTLKGWKKSTKGAKDVSELPKEALDYVKFIEEYTGVPVVMLSTGPKRDEYIWLKEILRTRSGYS | soluble |
| MEKPTRLALLKEIAEFLNEETEIYSMMQGALRLLINGSDFSTGWIFYIDEEGHHDLVSSVDLPEALSKNHCYYLTNGSCWCVQAYQNHKLTKASNIINCSRINLANHAYDKETNHITHHATVPLQSGSERFGLLNVASPNKEHYSEEDLELLESVAFQIGSAIKRIQLTNKEKENAKINERNRLARDLHDSVNQMLFSLKLTAHAAKGITTDEQAQRAFKTIEETSQNAVNEMRALIWQLKPVGLEQGLIHALHYYSKMLGLDLKVTINGLIDLSNDIEENVYRIIQEAMNNVIKHAKTNKVYLDLSQNVDYLEVDIRDNGQGFDTQSINTFLFNGLKNIKQRTQYLNGKVTIESKINQGTRIYIKIPLKLKEHPYA | not soluble |
| MEKPVMCKIIDVLDESPTVKTFLLDKEFDFKPGQFAMVWIPEIDEKPFGFSSKNSISIAKVGRFTEKIHSLKKGDLLGIRGPYGNNFEYMGSKILAVAGGIGSAPIISAVEKFSKMDVEVTSIIGGRTKDELLFLDRFEKCGRTFACTDDCSYGFGGFTTEKMLELLSKEKFDMIISCGPEIMMKKVVEIAEKHAIPIQVSLERYMKCGIGICGHCAVDDEGLCICKDGPVFWNDKLKFVSEFGKYKRDASGAIL | not soluble |
| MEKQLKAMSVSDKPAAPAAQKLGTAPLAAKKTRNEEWGTKVNIDTNIRKLTIKPNQPIYKYAVQVNYVFRKPDGTEATIEMSKSAKKGTEHDNDKTRCQNVYNEAIKRYDELKTGGPFFYDRQASLYTLTKLKNESISFVVTDKICKRQNFKEAQFVLKKVDQSFQSTSNDVIKTTNSCPANADKTLLEAMNIIVSGPAFENKNVITVGACVHYLIDPTGVDVAYKEYPEGQLYSGVGVSKSVKTLEGTDKKVPSLFMTTEMKTTLFHPDYAPLVELLQTFRGFSTTLKANSPAAQRIEKAFVGLDVVLNYGVHKGLGEDGVVMKIRRFHTSAKETCFEVEKSTREFTNVFDYFKKKYGITLKYPDLFTIEAKGKQGKIHFPAEVLLLCPNQTVTNDQMINNEQADMIKMSAAQPHIRKTTTDTIVRNVGLASNNIYGFIKVEDPVNLEGMVLPKPKIAFAGNRLADLANPKSRFPTDFNRAGQYYDAKELTKWELVFVQNEEVQGLAKQLADEMVNNGMKCSNPTMSFIIRGDLEPIFKKAKAAGTQLLFFVVKSRYNYHQQIKALEQKYDVLTQEIRAETAEKVFRQPQTRLNIINKTNMKLGGLNYAIGSEAFNKPNRLIVGFVTSQRVGGNPDYPISVGFAANMLKHHQKFAGGYVYVHRDRDVFGSIIKDTLLTIFKTCTEQRGRPDDILLYFNGVSEGQFSMINEEFSARVKEACMAFQKEGTPPFRPHITIIASSKAHNERLYKSDKGRIVNLEPGTVVDHTIVSNVYTEWYHASAVARQGTAKATKFTLIFTTKAGPQAEPLWHLEQLTNDLCYDHQIVFHPVGLPVPLYIADRYSQRGAMVLAANQGPIYNEGQIDLAATNSAYGYGEKKLFTTRFNA | not soluble |
| MEKQNLPVVVVGAGPVGLAAAAHLVERGIEPLVLEAGASAATAVRDWAHVRLFSPWAEVTDPAAEKLLAPTGWLRPDGATYPTGGDWAERYLQPLADVLGDQVRYGATVTGVARAGRDRIVDSGREEQPFTVHIETADGGEERIAARAVIDAGRRGVRHADRLEHHHHHH | soluble |
| MEKRNEEHSRKKFIEEQLNALKHEERVLNETRTKLQQQKWHLLQENDKIKEKIRVRDAAAGAGTGTGAPPE | not soluble |
| MEKSVNVIGAGLAGSEAAWQLVKRGVKVDLYEMRPVKQTPAHHTDKFAELVCTNSLRANGLTNAVGVIKEEMRLLDSIIIESADKASVPAGGALAVDRHEFSGYITDKVKNHPLVTIHTEEVTSIPEGPTIIATGPLTSPALAEEIKRLTGEEYLYFYDAAAPIIEKDSIDMDKVYLKSRYDKGEAAYLNCPMSEEEFNTFYEALVTAETAALKEFEKEVFFEGCMPIEVMAKRGIKTMLFGPLKPVGLEDPKTGKRPYAVLQLRQDDAAGTLYNMVGFQTHLKWGEQKRVFGLIPGLENAEIVRYGVMHRNTFINSPTVLEPTYQLKTRNDLFFAGQMTGVEGYVESAASGLAAGINAANFVQDKEPIVFPPESAIGSLANYITSASKKSFQPMNVNFGLFPELPTKIRAKQERNEKLAERALDAIKKVAEQLLEHHHHHH | soluble |
| MEKTITIYTDGAASGNPGKGGWGALLMYGSSRKEISGYDPATTNNRMELMAAIKGLEALKEPARVQLYSDSAYLVNAMNEGWLKRWVKNGWKTAAKKPVENIDLWQEILKLTTLHRVTFHKVKGHSDNPYNSRADELARLAIKENS | soluble |
| MELADVGAAASSQGVHDQVLPTPNASSRVIVHVDLDCFYAQVEMISNPELKDKPLGVQQKYLVVTCNYEARKLGVKKLMNVRDAKEKCPQLVLVNGEDLTRYREMSYKVTELLEEFSPVVERLGFDENFVDLTEMVEKRLQQLQSDELSAVTVSGHVYNNQSINLLDVLHIRLLVGSQIAAEMREAMYNQLGLTGCAGVASNKLLAKLVSGVFKPNQQTVLLPESCQHLIHSLNHIKEIPGIGYKTAKCLEALGINSVRDLQTFSPKILEKELGISVAQRIQKLSFGEDNSPVILSGPPQSFSEEDSFKKCSSEVEAKNKIEELLASLLNRVCQDGRKPHTVRLIIRRYSSEKHYGRESRQCPIPSHVIQKLGTGNYDVMTPMVDILMKLFRNMVNVKMPFHLTLLSVCFCNLKALNTAK | soluble |
| MELKHSISDYTEAEFLEFVKKIARAEGATECDDNKLVREFERLTEHPDGSDLIYYPRDDREDSPEGIVKEIKEWRAANGKSGFKQG | soluble |
| MELPVVDLSSYLDFSGDELGSDLLESCRQVSRILKETGALIVKDPRCCAQDNDRFIDMMENYFEKPDDFKRLQQRPNLHYQVGATPEGVEVPRSLVDEEMQEKFNTMPNEYKPHIPKGPDHKWRYMWRVGPRPSNTRFKELNSEPVVPEGFPGWEEVMDSWGYKMISAVEVVAEMAAIGFGLPKDAFTSLMKQGPHLLAPTGSDLNCYNEEGTIFAGYHYDLNFLTIHGRSRFPGLYIWLRNGEKVAVKVPVGCLLIQAGKQIEWLTAGECIAGMHEVVVTSKTKDAITLAKEQNRSLWRVSSTLFAHIASDAELKPLGHFAESSLASKYPAIPAGEYVEQELSVINLKGNKGSS | soluble |
| MELRVGNKYRLGRKIGSGSFGDIYLGANIASGEEVAIKLECVKTKHPQLHIESKFYKMMQGGVGIPSIKWCGAEGDYNVMVMELLGPSLEDLFNFCSRKFSLKTVLLLADQMISRIEYIHSKNFIHRDVKPDNFLMGLGKKGNLVYIIDFGLAKKYRDARTHQHIPYRENKNLTGTARYASINTHLGIEQSRRDDLESLGYVLMYFNLGSLPWQGLKAATKRQKYERISEKKMSTPIEVLCKGYPSEFSTYLNFCRSLRFDDKPDYSYLRQLFRNLFHRQGFSYDYVFDWNMLKFGAARNPEDVDRERREHEREERMGQLRGSATRALPPGPPTGATANRLRSAAEPVASTPASRIQPAGNTSPRAISRVDRERKVSMRLHRGAPANVSSSDLTGRQEVSRIPASQTSVPFDHLGK | not soluble |
| MELSSLTAVSPVDGRYGDKVSALRGIFSEYGLLKFRVQVEVRWLQKLAAHAAIKEVPAFAADAIGYLDAIVANFSEEDAARIKTIERTTNHDVKAVEYFLKEKVAEIPELHAVSEFIHFACTSEDINNLSHALMLKTARDEVILPYWRQLIDGIKDLAVQYRDIPLLSRTHGQPATPSTIGKEMANVAYRMERQHRQLNQVEILGKINGAVGNYNAHIAAYPEVDWHQFSEEFVTSLGIQWNPYTTQIEPHDYIAELFDCVARFNTILIDFDRDVWGYIALNHFKQKTIAGEIGSSTMPHKVNPIDFENSEGNLGLSNAVLQHLASKLPVSRWQRDLTDSTVLRNLGVGIGYALIAYQSTLKGVSKLEVNRDHLLDELDHNWEVLAEPIQTVMRRYGIEKPYEKLKELTRGKRVDAEGMKQFIDGLALPEEEKARLKAMTPANYIGRAITMVDELK | not soluble |
| MELVKTIQIGDDIYPPIPDLFGIQENQEFNLYKSTDGTLVLSPSDSKLSADHQSISSDEQMTTAVEQARLDEIATSVLSRHLDAFKELTE | not soluble |
| MEMYFKRMKDEWTGLVEQADPPIRAKAAEIAVAHAHYLSIEFYRIVRIDPHAEEFLSNEQVERQLKSAMERWIINVLSAQVDDVERLIQIQHTVAEVHARIGIPVEIVEMGFRVLKKILYPVIFSSDYSAAEKLQVYHFSINSIDIAMEVMTRAFTFSDSLEHHHHHH | not soluble |
| MEMYFKRMKDEWTGLVEQADPPIRAKAAEIAVAHAHYLSIEFYRIVRIDPHAEEFLSNEQVERQLKSAMERWIINVLSAQVDDVERLIQIQHTVAEVHARIGIPVEIVEMGFRVLKKILYPVIFSSDYSAAEKLQVYHFSINSIDIAMEVMTRAFTFSDSSASKELEHHHHHH | soluble |
| MENNPFQRTEKIDISWCPGCGNFAIKASLSNALSKLNLKPQNVAIISGIGQAGKMPHYMFVNGFHTLHGRAIPAATAVKATNPELTVIAEGGDGDMYAEGGNHLIHAIRRNPNITVLIHNNQIYGLTKGQASPTTLVSTKTPTQPWGVFEEPLNPIALAISLNASFVARTFSGNLEKTEEIIIKAINHKGLSIVDIFHPCPSFNKVNTLQWYNENTYFLEDHDVTDRKKAFEKALQTEKYPLGIFYTCEKPVFEEVVPPYISEKTPIWKREPDLEKIEEIINSKRT | not soluble |
| MENREPPLLPARWSSAYVSYWSPMLPDDQLTSGYCWFDYERDICRIDGLFNPWSERDTGYRLWMSEVGNAASGRTWKQKVAYGRERTALGEQLCERPLDDETGPFAELFLPRDVLRRLGARHIGRRVVLGREADGWRYQRPGKGPSTLYLDAASGTPLRMVTGDEASRASLRDFPNVSEAEIPDAVFAAKRLEHHHHHH | soluble |
| MENTEKLKNSKEVIAYIAECFPNCFTLEGEAKPLKIGIFQDLADRLNDDPKVSKTQLRAALRQYTSSWRYLHGVKPGATRVDLDGNPCGELEEQHVEHAQAALAESKARVEARRKEQVKKVREEAKANKPKAKKPQQARRPQNAPKVEKKPVETRALAASELNVGNQVNVNMGKGNMAATIVEVNKEDVRVQLANGLQMVVKAEHLRA | not soluble |
